Reference: PMC9967645, “OAT3 Participates in Drug–Drug Interaction between Bentysrepinine and Entecavir through Interactions with M8—A Metabolite of Bentysrepinine—In Rats and Humans In Vitro” (Molecules, 2023)

Substrate: CN(C)CCOc1ccc(CC(NC(=O)c2ccccc2)C(=O)O)cc1
Experiment: cells, lysate or membranes named
Conditions: other: hOAT3-HEK293 cells, Eadie–Hofstee plot, 2 to 1000 µM, 5 min; pH 7.4
Protocol: The hOAT1-HEK293, hOAT3-HEK293 and mock cells were cultured in Dulbecco modified Eagle medium (DMEM) containing 10% fetal bovine serum (FBS) and 1% penicillin/streptomycin in an atmosphere of 5% CO2 air at 37 °C. The HEK293 cells were plated on 24-well plates at a density of 5 × 10^5 cells/well. […] Uptake assay was initiated by adding 1 mL of the transporter buffer containing Y101, M8, ETV or probe substrate. Following incubation with gentle shaking, the uptake was terminated at designated time by removing the transporter buffer and washing cells three times with 1 mL of ice-cold HBSS. Next, substrates of Y101, M8, ETV, PAH and ES in cell monolayer were released by lysing the cells with 0.3 mL of 0.1% Triton X-100 for 2 h and determined by liquid chromatography–tandem mass spectrometry (LC–MS/MS). In the time-course uptake assay, Y101 (2.0 µM) and M8 (10 µM) in the presence or absence of PRO (100 µM) were measured in hOAT1-HEK293, hOAT3-HEK293 and mock cells. The concentration-dependent uptake of M8 was determined in hOAT3-HEK293 cells, and incubation time (5 min) was optimized. […] The uptake of ETV (10 µM) with or without Y101 or M8 was also measured in hOAT1-HEK293 and hOAT3-HEK293 cells, respectively. […] Protein concentrations were measured by the bicinchoninic acid procedure (Solarbio, Beijing, China) using bovine serum albumin as the standard. […]

B1: hOAT3 (Homo sapiens) (protein)
chain: MTFSEILDRVGSMGHFQFLHVAILGLPILNMANHNLLQIFTAATPVHHCRPPHNASTGPWVLPMGPNGKPERCLRFVHPPNASLPNDTQRAMEPCLDGWVYNSTKDSIVTEWDLVCNSNKLKEMAQSIFMAGILIGGLVLGDLSDRFGRRPILTCSYLLLAASGSGAAFSPTFPIYMVFRFLCGFGISGITLSTVILNVEWVPTRMRAIMSTALGYCYTFGQFILPGLAYAIPQWRWLQLTVSIPFFVFFLSSWWTPESIRWLVLSGKSSKALKILRRVAVFNGKKEEGERLSLEELKLNLQKEISLAKAKYTASDLFRIPMLRRMTFCLSLAWFATGFAYYSLAMGVEEFGVNLYILQIIFGGVDVPAKFITILSLSYLGRHTTQAAALLLAGGAILALTFVPLDLQTVRTVLAVFGKGCLSSSFSCLFLYTSELYPTVIRQTGMGVSNLWTRVGSMVSPLVKITGEVQPFIPNIIYGITALLGGSAALFLPETLNQPLPETIEDLENWSLRAKKPKQEPEVEKASQRIPLQPHGPGLGSS
**Q.** How did the Km turn out when B1 was run?
**A.** 367 µM

**Q.** And the Vmax?
**A.** 414 pmol/min/mg protein
